# Reference: WO2005035751A1 (dated 2005)
# Target: T1, angiotensin II-biotin (UniProt P01019 25-32, biotin attached (angiotensin II-biotin; chemical structure only in Figure 3))
# T1 construct: Captured through its biotin on streptavidin (Biacore chip, ELISA plate) or on NeutrAvidin resin (selection); P01019 is the human angiotensinogen precursor, and angiotensin II is only a fragment of it; also called アンジォテンシン II-ピオチン
# Experiment: SPR (Biacore 3000), angiotensin II-biotin on streptavidin chip
row,Binder,binding result
1,"MI3-41 (scFv, Single-chain antibody translated in wheat germ extract) scFv: MASMTGGQQMGQVTLKESGPGILQPSQTLSLTCSFSGFSLSTSGMGVGWIRQPSGKGLEWLAHIWRDDVKRYNPALKSRLTISKDTSSSQVFLKIASMDTADTATYYCARIYYYGPYFDVWGAGTTVTVSLAKTSRPSGGGGSGRGGSGGAGSGGGGSIEGRDIQLTQPPSFLSASLGDRVSLTCRVSQDIGSSLNWLQQDPDGTIKRLIYAISSIDSGVPKRFSGNRSESDYSLTISSLESEDFVDYYCLQYASTPPTFGGGTKLEIKRDYKDDDDKRTSRVRLHHHHHHHKK",binds
2,"MI3-42 (scFv, Single-chain antibody translated in wheat germ extract) scFv: MASMTGGQQKGQVTLKESGPGILQPSQTLSLTCSFSGFSLSTSGMGVGWIRQPSGKGLEWLAHIWRDDVKRYNPALKSRLTISKDTSSSQVFLKIASMDTADTATYYCARIYYYGPYFDVWGAGTTVTVSLAKTSRPSGGGGSGGGGSGGAGSGGGGSIEGRDIQLTQPPSFLSASLGDRVSLTCRVSQDIGSSLNWLQQDPDGTVKRLIYAISSIDSGVPKRFSGNRSESDYSLTISSLESEDFVDYYCLQYASTPPTFGGGTKLEIKRDYKDDDDKRTSRVRLHHHHHHHKK",binds
3,"MI3-28 (scFv, Single-chain antibody translated in wheat germ extract) scFv: MASMTGGQQMGQVTLKESGPGILQPSQTLSLTCSFSGFSLSTSGMGVGWIRQPSGKGLEWLAHIWRDDVKRYNPALKSRLTISKDTSSSQVFLKIASMDTADTATYYCPRIYYYGPYFDVWGAGTTVTVSLAKTSRPSGGGGSGGGGSGGAGSGGGGSIEGRDIQLTQPPSFLSASLGDRVSLTCRVSQDIGSSLNWLQQDPDGTIKRLIYAISSIDSGVPKRFSGNRSESDYSLTISSLESEDFVDYYCLQYASTPPTFGGGTKLEIKRDYKDDDDKRTSRVRLHHHHHHHKK",binds
4,"MI3-15 (scFv, Single-chain antibody translated in wheat germ extract) scFv: MASMTGGQQMGQVTLKESGPGILQPSQTLSLTCSFSGFSLSTSGMGVGWIRQPSGKGLEWLAHIWRDDVKRYNPALKSRLTISKDTSSSQVFLKIASMDTADTATYYCARIYYYGPYFDVWGAGTTVTVSLAKTSRPSGGGGSGRGGSGGAGSGGGGSIEGRDIQLTQPPSFLSASLGDRVSLTCRVSQDIGSSLNWLQQDPDGTIKRLIYAISSIDSGVPKRFSGNRSESDYFLTISSLESEDFVDYYCLQYASTPPTFGGGTKLEIKRDYKDDDDKRTSRVRLHHHHHHHKK",binds
5,"MI3-34 (scFv, V domains shown, Single-chain antibody translated in wheat germ extract) VH: QVTLKESGPGILQPSQTLSLTCSFSGFSLSTSGMGVGWIRQPSGKGLEWLAHIWQDNVKRYNPALKSRLSISKDTSSSQVFLKIASMDTADTATYYCARIYYYGPYFDVWGAWTTVTVSL",binds
6,"MI3-5 (scFv, Single-chain antibody translated in wheat germ extract) scFv: MASMTGGQQMGQVTLKETGPGILQPSQTLSLTCSFSGFSLSTSGMGVGWIRQPSGKGLEWLAHIWRDDVKRYNPALKSRLTISKDTSSSQVFLKIASMDTADTATYYCTRIYYYGPYFDVWGAGTTVTVSLAKTSRPSGGGGSGGGGSGGAGSGGGGSIEGRDIQLTQPPSFFSASLGDRASLTRRVSQDIGSSLNWLQQDPDGTIKRLIYAISSIDSGVPKRFSGNRSESDYSLTISSLESEDFVDYYCLQYASTPSTFGGGTKLEIKRDYKDDDDKRTSRVRLHHHHHHHKK",binds
7,"MI3-26 (scFv, Single-chain antibody translated in wheat germ extract) scFv: MASMTGGQQMGQVTLKECGPGILQPSQTLSLTCSFSGFSLSTSGMSVGWIRQPSGKGLKWLAHIWWNDDKYYNPAPKSRLTISKDTSNNQVFLKIASVVTADTATYYCARIARISYYFDYWGQGTTLTVSSAKTSRPSGGGGSGGGGTGGVGSRGGSSIEGRDIQLTQPPSFLSASLGDRVSLTCRVSQDIGSSLNWLQQDPDGTIKRLIYAISSIDSGVPKRFSGNRSESDYSLTISSLESEDFVDYYCLQYASTPPTFGGGTKLEIKRDYKDDDDKRTSRVRLHHHHHHHKK",binds
